In paper PMC9482650, “Quantitative fragmentomics allow affinity mapping of interactomes” (Nature Communications, 2022):
One block for each binder: values may come before it.

Tests used:
Test in all cases: holdup assay
Set-up in all cases: key: below the threshold = too weak to quantify, mostly under pKd 3.1 to 4
[1] = biological target: MAGI2_2, Q86UL8
[2] = biological target: FRMPD3, Q5JV73
[3] = biological target: T1, RHPN1, Q8TCX5
T1 sequence (Q8TCX5 508-602, limits assumed, looked up): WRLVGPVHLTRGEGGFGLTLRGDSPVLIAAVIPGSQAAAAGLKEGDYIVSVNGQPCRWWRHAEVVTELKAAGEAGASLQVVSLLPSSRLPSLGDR

[4] = biological target: GIPC2, Q8TF65
[5] = biological target: Inadl_3, Q8NI35
[6] = biological target: DLG1_1, Q12959
[7] = biological target: MAGI2_5, Q86UL8
[8] = biological target: IL16_3, Q14005
[9] = biological target: T2, PCLO, Q9Y6V0
T2 sequence (Q9Y6V0 4491-4600, limits assumed, looked up): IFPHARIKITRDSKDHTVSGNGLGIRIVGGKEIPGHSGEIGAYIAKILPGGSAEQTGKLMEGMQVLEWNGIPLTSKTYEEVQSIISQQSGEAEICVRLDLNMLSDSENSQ

[10] = biological target: T3, DLG3_1, Q92796
T3 sequence (Q92796 125-227, limits assumed, looked up): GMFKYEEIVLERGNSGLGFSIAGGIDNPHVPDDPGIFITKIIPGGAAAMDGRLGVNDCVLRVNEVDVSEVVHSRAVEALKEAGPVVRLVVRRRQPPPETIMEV

[11] = biological target: Inadl_9, Q8NI35
[12] = biological target: T4, MPDZ_12, O75970
T4 sequence (O75970 1857-1958, limits assumed, looked up): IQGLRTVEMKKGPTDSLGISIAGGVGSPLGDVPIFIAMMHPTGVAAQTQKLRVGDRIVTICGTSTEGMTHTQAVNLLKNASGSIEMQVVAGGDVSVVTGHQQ

[13] = biological target: T5, PDZRN3_1, Q9UPQ7
T5 sequence (Q9UPQ7 244-349, limits assumed, looked up): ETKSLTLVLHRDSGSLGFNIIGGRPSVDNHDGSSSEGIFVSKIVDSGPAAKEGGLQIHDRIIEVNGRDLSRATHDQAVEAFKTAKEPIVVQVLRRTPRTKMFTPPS

[14] = biological target: Inadl_4, Q8NI35
[15] = biological target: IL16_4, Q14005
[16] = biological target: T6, GRIP1_5, Q9Y3R0
T6 sequence (Q9Y3R0 568-668, limits assumed, looked up): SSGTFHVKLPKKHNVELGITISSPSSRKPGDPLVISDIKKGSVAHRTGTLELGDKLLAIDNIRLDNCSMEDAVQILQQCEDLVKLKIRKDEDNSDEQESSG

[17] = biological target: ARHGEF12, Q9NZN5-2
[18] = biological target: T7, GRIP1_3, Q9Y3R0
T7 sequence (Q9Y3R0 247-346, limits assumed, looked up): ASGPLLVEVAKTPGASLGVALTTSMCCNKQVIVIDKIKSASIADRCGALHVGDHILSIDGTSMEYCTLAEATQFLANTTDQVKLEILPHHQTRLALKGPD

[19] = biological target: NOS1, P29475
[20] = biological target: LAP2, Q96RT1
[21] = biological target: T8, MPDZ_5, O75970
T8 sequence (O75970 695-796, limits assumed, looked up): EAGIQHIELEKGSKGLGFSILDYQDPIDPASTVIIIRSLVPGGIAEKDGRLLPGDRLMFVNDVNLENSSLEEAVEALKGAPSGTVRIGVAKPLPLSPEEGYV

[22] = biological target: T9, LNX2_2, Q8N448
T9 sequence (Q8N448 334-432, limits assumed, looked up): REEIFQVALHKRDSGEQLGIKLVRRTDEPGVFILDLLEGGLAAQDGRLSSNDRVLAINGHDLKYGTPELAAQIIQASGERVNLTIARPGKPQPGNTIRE

[23] = biological target: FRMPD4, Q14CM0
[24] = biological target: T10, APBA1_1, Q02410
T10 sequence (Q02410 651-752, limits assumed, looked up): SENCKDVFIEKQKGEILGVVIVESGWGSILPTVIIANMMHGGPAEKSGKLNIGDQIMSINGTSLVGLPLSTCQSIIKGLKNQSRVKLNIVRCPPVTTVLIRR

[25] = biological target: T11, DLG3_3, Q92796
T11 sequence (Q92796 374-475, limits assumed, looked up): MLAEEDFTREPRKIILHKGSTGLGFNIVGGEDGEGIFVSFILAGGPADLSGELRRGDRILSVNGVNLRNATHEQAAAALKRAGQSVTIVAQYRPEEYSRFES

[26] = biological target: MAGI1_2, Q96QZ7
[27] = plain residues with an end cap or a label only (N-terminal biotin on a linker: ttds)
[28] = plain residues with an end cap or a label only (N-terminal biotin on a linker: ahx)

Sequence of FRMPD4, Q14CM0 (Q14CM0 67-160): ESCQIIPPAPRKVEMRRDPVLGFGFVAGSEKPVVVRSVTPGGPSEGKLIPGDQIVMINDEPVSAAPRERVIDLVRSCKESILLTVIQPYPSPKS
Sequence of Inadl_4, Q8NI35 (Q8NI35 547-651): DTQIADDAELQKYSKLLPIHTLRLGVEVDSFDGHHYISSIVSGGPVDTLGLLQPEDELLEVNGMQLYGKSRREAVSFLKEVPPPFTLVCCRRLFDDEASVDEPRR
Sequence of ARHGEF12, Q9NZN5-2 (Q9NZN5 other isoform, or with tags, fused parts or gaps): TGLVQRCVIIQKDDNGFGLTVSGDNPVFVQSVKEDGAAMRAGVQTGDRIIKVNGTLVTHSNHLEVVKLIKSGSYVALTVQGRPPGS
Sequence of NOS1, P29475 (P29475 9-101): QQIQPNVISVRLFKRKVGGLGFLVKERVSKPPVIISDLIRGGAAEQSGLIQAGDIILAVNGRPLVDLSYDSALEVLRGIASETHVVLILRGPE
Sequence of GIPC2, Q8TF65 (Q8TF65 112-203): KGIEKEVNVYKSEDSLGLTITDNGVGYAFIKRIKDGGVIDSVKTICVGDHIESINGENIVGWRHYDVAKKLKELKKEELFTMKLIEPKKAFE
Sequence of MAGI2_5, Q86UL8 (Q86UL8 915-1017): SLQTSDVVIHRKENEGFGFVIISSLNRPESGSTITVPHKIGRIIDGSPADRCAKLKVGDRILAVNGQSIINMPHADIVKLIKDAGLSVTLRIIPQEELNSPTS
Sequence of MAGI2_2, Q86UL8 (Q86UL8 410-522): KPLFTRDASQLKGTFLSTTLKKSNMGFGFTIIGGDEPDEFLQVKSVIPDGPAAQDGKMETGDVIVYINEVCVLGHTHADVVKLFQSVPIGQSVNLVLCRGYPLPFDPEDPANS
Sequence of IL16_3, Q14005 (Q14005 1107-1207): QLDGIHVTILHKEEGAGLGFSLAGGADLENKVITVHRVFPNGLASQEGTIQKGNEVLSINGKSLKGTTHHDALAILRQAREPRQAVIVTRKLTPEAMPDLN
Sequence of FRMPD3, Q5JV73 (Q5JV73 12-100): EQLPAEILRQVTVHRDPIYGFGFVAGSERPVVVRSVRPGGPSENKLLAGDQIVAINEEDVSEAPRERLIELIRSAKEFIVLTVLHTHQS
Sequence of IL16_4, Q14005 (Q14005 1229-1329): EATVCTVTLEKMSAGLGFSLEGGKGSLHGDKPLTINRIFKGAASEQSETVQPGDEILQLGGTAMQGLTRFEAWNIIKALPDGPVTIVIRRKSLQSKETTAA
Sequence of LAP2, Q96RT1 (Q96RT1 other isoform, or with tags, fused parts or gaps): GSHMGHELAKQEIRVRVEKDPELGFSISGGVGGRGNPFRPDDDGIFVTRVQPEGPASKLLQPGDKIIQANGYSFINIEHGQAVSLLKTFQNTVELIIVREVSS
Sequence of Inadl_9, Q8NI35 (Q8NI35 1530-1615): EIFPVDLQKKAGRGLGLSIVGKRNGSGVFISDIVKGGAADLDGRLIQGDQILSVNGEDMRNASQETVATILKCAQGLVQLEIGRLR
Sequence of MAGI1_2, Q96QZ7 (Q96QZ7 456-580): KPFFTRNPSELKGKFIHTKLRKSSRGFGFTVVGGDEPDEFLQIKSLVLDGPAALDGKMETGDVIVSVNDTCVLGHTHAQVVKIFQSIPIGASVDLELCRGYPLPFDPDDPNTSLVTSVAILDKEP
Sequence of Inadl_3, Q8NI35 (Q8NI35 359-469): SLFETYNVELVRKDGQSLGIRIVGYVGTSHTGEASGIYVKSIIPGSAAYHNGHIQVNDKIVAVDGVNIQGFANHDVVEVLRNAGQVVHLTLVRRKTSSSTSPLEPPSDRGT

Binder: YNSFLSVTTV [PDZRN3, Q9UPQ7]
pKd [1, 28]: 3.95
pKd [2, 28]: below the threshold
pKd [3, 28]: 4.4
pKd [4, 28]: below the threshold
pKd [5, 28]: 3.76
pKd [6, 28]: 3.81
pKd [7, 28]: 3.9
pKd [8, 28]: below the threshold
pKd [9, 28]: below the threshold
pKd [10, 28]: below the threshold
pKd [11, 28]: below the threshold
pKd [12, 28]: below the threshold
pKd [13, 28]: below the threshold
pKd [14, 28]: below the threshold
pKd [15, 28]: below the threshold
pKd [16, 28]: below the threshold
pKd [17, 28]: 4.25
pKd [18, 28]: below the threshold
pKd [19, 28]: below the threshold
pKd [20, 28]: below the threshold
pKd [21, 28]: below the threshold
pKd [22, 28]: 4.94
pKd [23, 28]: below the threshold
pKd [24, 28]: below the threshold
pKd [25, 28]: 3.67
pKd [26, 28]: 3.99

Binder: KLVIKTETTV [RASSF6, Q6ZTQ3]
pKd [1, 27]: 5.11
pKd [2, 27]: below the threshold
pKd [3, 27]: 3.93
pKd [4, 27]: below the threshold
pKd [5, 27]: below the threshold
pKd [6, 27]: 4.88
pKd [7, 27]: 3.77
pKd [8, 27]: below the threshold
pKd [9, 27]: below the threshold
pKd [10, 27]: 4.52
pKd [11, 27]: 3.54
pKd [12, 27]: below the threshold
pKd [13, 27]: 3.82
pKd [14, 27]: below the threshold
pKd [15, 27]: 3.49
pKd [16, 27]: below the threshold
pKd [17, 27]: 3.82
pKd [18, 27]: below the threshold
pKd [19, 27]: 3.58
pKd [20, 27]: below the threshold
pKd [21, 27]: below the threshold
pKd [22, 27]: 4.48
pKd [23, 27]: below the threshold
pKd [24, 27]: below the threshold
pKd [25, 27]: 4.43
pKd [26, 27]: 4.82

Binder: PKMKLNETSF [SHKBP1, Q8TBC3]
pKd [1, 28]: below the threshold
pKd [2, 28]: below the threshold
pKd [3, 28]: 3.72
pKd [4, 28]: below the threshold
pKd [5, 28]: below the threshold
pKd [6, 28]: below the threshold
pKd [7, 28]: 3.53
pKd [8, 28]: below the threshold
pKd [9, 28]: below the threshold
pKd [10, 28]: below the threshold
pKd [11, 28]: below the threshold
pKd [12, 28]: below the threshold
pKd [13, 28]: below the threshold
pKd [14, 28]: below the threshold
pKd [15, 28]: below the threshold
pKd [16, 28]: below the threshold
pKd [17, 28]: below the threshold
pKd [18, 28]: below the threshold
pKd [19, 28]: below the threshold
pKd [20, 28]: below the threshold
pKd [21, 28]: below the threshold
pKd [22, 28]: below the threshold
pKd [23, 28]: below the threshold
pKd [24, 28]: below the threshold
pKd [25, 28]: below the threshold
pKd [26, 28]: below the threshold

Now from value to binder:

pKd [1, 27]: below the threshold
pKd [2, 27]: below the threshold
pKd [3, 27]: below the threshold
pKd [4, 27]: below the threshold
pKd [5, 27]: below the threshold
pKd [6, 27]: below the threshold
pKd [7, 27]: below the threshold
pKd [8, 27]: below the threshold
pKd [9, 27]: below the threshold
pKd [10, 27]: below the threshold
pKd [11, 27]: 3.47
pKd [12, 27]: below the threshold
pKd [13, 27]: below the threshold
pKd [14, 27]: below the threshold
pKd [15, 27]: below the threshold
pKd [16, 27]: below the threshold
pKd [17, 27]: below the threshold
pKd [18, 27]: below the threshold
pKd [19, 27]: 3.74
pKd [20, 27]: below the threshold
pKd [21, 27]: below the threshold
pKd [22, 27]: below the threshold
pKd [23, 27]: below the threshold
pKd [24, 27]: below the threshold
pKd [25, 27]: below the threshold
pKd [26, 27]: below the threshold
Binder: PFRSRSPSEV [GPR6, P46095]

pKd [1, 27]: 4.67
pKd [2, 27]: below the threshold
pKd [3, 27]: below the threshold
pKd [4, 27]: 3.62
pKd [5, 27]: below the threshold
pKd [6, 27]: 4.72
pKd [7, 27]: below the threshold
pKd [8, 27]: below the threshold
pKd [9, 27]: below the threshold
pKd [10, 27]: 4.01
pKd [11, 27]: below the threshold
pKd [12, 27]: below the threshold
pKd [13, 27]: 4.51
pKd [14, 27]: below the threshold
pKd [15, 27]: below the threshold
pKd [16, 27]: below the threshold
pKd [17, 27]: 3.97
pKd [18, 27]: below the threshold
pKd [19, 27]: 4.41
pKd [20, 27]: 4.04
pKd [21, 27]: below the threshold
pKd [22, 27]: below the threshold
pKd [23, 27]: 3.52
pKd [24, 27]: below the threshold
pKd [25, 27]: 4.12
pKd [26, 27]: 3.9
Binder: SHSSKGETAV [FZD7, O75084]
